How the values were obtained:
[1] = molecular target: T1, IHF from Haemophilus influenzae (Hi) (Haemophilus influenzae); assay: ELISA
T1 chain: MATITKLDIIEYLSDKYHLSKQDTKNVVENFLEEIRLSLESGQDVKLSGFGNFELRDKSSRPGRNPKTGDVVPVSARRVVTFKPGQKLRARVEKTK

[2] = molecular target: T2, IHF from Klebsiella pneumoniae (Kp) (Klebsiella pneumoniae); assay: ELISA
T2 construct: Recombinant, His-tagged, made in HEK293 cells; also called IHF (Kp)

[3] = molecular target: T1, IHF from Haemophilus influenzae (Hi); assay: ForteBio Octet QK biosensor (BLI), ratio of on and off rates
[4] = molecular target: T2, IHF from Klebsiella pneumoniae (Kp); assay: as above

T2 sequence (A6TAI1 whole entry, chain 1 of 2): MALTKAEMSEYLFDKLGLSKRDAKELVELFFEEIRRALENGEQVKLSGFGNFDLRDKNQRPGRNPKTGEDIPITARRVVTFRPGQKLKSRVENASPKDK
T2 sequence (A6T704 whole entry, chain 2 of 2, further chain): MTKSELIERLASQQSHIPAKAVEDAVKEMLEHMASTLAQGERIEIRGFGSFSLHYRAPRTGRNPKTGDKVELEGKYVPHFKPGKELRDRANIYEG

| Binder | OD [1] | OD [2] | Kd [3] | Kd [4] |
| --- | --- | --- | --- | --- |
| TRL1070 (antibody, V domains shown) VH: QVQLVQSGGTLVQPGGSLRLSCAASGFTFSYYSMSWVRQAPGKGLEWVANIKHDGTERNYVDSVKGRFTISRDNSEKSLYLQMNSLRAEDTAVYYCAKYYYGAGTNYPLKYWGQGTRVTVSS VL: DILMTQSPSSLSASVGDRVTITCRASQGIRNDLGWYQQKPGKAPKLLIYAASSLQSGVPSRFSGSGSGTDFTLTISSLQPEDFATYYCLQDYNYPLTFGGGTKVEIKR | 0.11 OD | 0.5 OD |  |  |
| TRL1087 (antibody, V domains shown) VH: QVQLLESGPGLVRPSDTLSLTCTFSADLSTNAYWTWIRQPPGKGLEWIGYMSHSGGRDYNPSFNRRVTISVDTSKNQVFLRLTSVTSADTAVYFCVREVGSYYDYWGQGILVTVSS VL: DIEMTQSPSSLSASVGDRITITCRASQGISTWLAWYQQKPGKAPKSLIFSTSSLHSGVPSKFSGSGSGTDFTLTITNLQPEDFATYYCQQKWETPYSFGQGTKLDMIR | 0.06 OD | 0.06 OD |  |  |
| TRL1230 (antibody, V domains shown) VH: QVQLVQSGGGLVKPGGSLRLSCGASGFNLSSYSMNWVRQAPGKGLEWVSSISSRSSYIYYADSVQGRFTISRDNAKNSLYLQMNSLRAEDTAIYYCARVSPSTYYYYGMDVWGQGTTVTVSS VL: DIVLTQPSSVSVSPGQTARITCSGDELPKQYAYWYQQKPGQAPVLVIYKDNERPSGIPERFSGSSSGTTVTLTISGVQAEDEADYYCQSADSSGTYVVFGGGTKLTVL | 0.06 OD | 0.07 OD |  |  |
| TRL1218 (antibody, V domains shown) VH: QVQLLESGADMVQPGRSLRLSCAASGFNFRTYAMHWVRQAPGKGLEWVAVMSHDGYTKYYSDSVRGQFTISRDNSKNTLYLQMNNLRPDDTAIYYCARGLTGLSVGFDYWGQGTLVTVSS VL: DIVLTQSASVSGSPGQSITISCTGTSSDVGGYNYVSWYQQHPGKAPKLMIYDVTTRPSGVSDRFSGSKSGNTASLTISGLQAEDEADYYCSSYSSGSTPALFGGGTQLTVL | 0.04 OD | 0.06 OD |  |  |
| TRL1068 (antibody, V domains shown) VH: QVQLVESGPGLVKPSETLSLTCRVSGDSNRPSYWSWIRQAPGKAMEWIGYVYDSGVTIYNPSLKGRVTISLDTSKTRFSLKLTSVIAADTAVYYCARERFDRTSYKSWWGQGTQVTVSS VL: DIVLTQAPGTLSLSPGDRATLSCRASQRLGGTSLAWYQHRSGQAPRLILYGTSNRATDTPDRFSGSGSGTDFVLTISSLEPEDFAVYYCQQYGSPPYTFGQGTTLDIK |  |  | 350 nM | 7 nM |
| TRL1216 (antibody, V domains shown) VH: QVQLVESGGGVVQPGGSLRVSCAASAFSFRDYGIHWVRQAPGKGLQWVAVISHDGGKKFYADSVRGRFTISRDNSENTLYLQMNSLRSDDTAVYYCARLVASCSGSTCTTQPAAFDIWGPGTLVTVSS VL: DIMLTQPPSVSVSPGQTARITCSGDALPKKYTYWYQQKSGQAPVLLIYEDRKRPSEIPERFSAFTSWTTATLTITGAQVRDEADYYCYSTDISGDIGVFGGGTKLTVL | 0.06 OD | 0.4 OD |  |  |
| TRL1232 (antibody, V domains shown) VH: QVQLVESGAEVKKPGALVKVSCKASGYTFSGYYMHWVRQAPGQGLEWMGWINPKSGGTKYAQKFQGRVTMTRDTSISTAYMELSRLRSDDTAVYFCARGGPSNLERFLERLQPRYSYDDKYAMDVWGQGTTVTVSS VL: DIVMTQSPGTLSLSPGARATLSCRASQSVSSIYLAWYQQKPGQAPRLLIFGASSRATGIPDRFSGSGSGTDFTLTISRLEPEDFAVYYCQQYGSSPYTFGQGTKLEIKR | 0.1 OD | 0.1 OD |  |  |
| TRL1215 (antibody, V domains shown) VH: QVQLVESGTEVKNPGASVKVSCTASGYKFDEYGVSWVRQSPGQGLEWMGWISVYNGKTNYSQNFQGRLTLTTETSTDTAYMELTSLRPDDTAVYYCATDKNWFDPWGPGTLVTVSS VL: DIVMTQSPSASGSPGQSITISCTGTNTDYNYVSWYQHHPGKAPKVIIYDVKKRPSGVPSRFSGSRSGNTATLTVSGLQTEDEADYYCVSYADNNHYVFGSGTKVTVL | 1.9 OD | 1.6 OD |  |  |

Reference: patent US20220259294A1 (published 2022)
